Source: patent US20240301049A1 (Ablynx, published 2024)

Key:
[1] = biological target: T1, cyno IL-6 (cynomolgus monkey, UniProt P79341 28-212, limits assumed); assay: cell-based or functional assay
T1 sequence (looked up): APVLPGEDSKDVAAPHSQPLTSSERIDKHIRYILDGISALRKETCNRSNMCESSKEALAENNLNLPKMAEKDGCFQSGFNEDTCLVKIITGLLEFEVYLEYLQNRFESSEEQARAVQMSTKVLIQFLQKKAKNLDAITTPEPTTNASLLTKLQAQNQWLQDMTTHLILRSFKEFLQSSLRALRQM

[2] = biological target: T2, human IL-6 (human, UniProt P05231 30-212); assay: cell-based or functional assay
[3] = biological target: T3, cyno TNF-α (cynomolgus monkey, UniProt P79337 77-233); assay: cell-based or functional assay
T3 sequence (P79337 77-233 limits assumed): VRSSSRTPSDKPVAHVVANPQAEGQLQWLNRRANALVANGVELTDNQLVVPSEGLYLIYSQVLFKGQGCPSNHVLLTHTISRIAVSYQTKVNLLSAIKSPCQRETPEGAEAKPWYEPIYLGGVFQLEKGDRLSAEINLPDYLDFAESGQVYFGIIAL

[4] = biological target: T4, human TNF-α (human, UniProt P01375 77-233); assay: cell-based or functional assay
T4 sequence (P01375 77-233 limits assumed): as the sequence (P79337 77-233 limits assumed) above, with V37L, T44R, N72T, L138R counted along it

[5] = biological target: T1, cyno IL-6; assay: cell-based or functional assay; remark: listed apart in the source
[6] = biological target: T2, human IL-6; assay: cell-based or functional assay; remark: listed apart in the source
[7] = biological target: T3, cyno TNF-α; assay: cell-based or functional assay; remark: listed apart in the source
[8] = biological target: T4, human TNF-α; assay: cell-based or functional assay; remark: listed apart in the source
[9] = biological target: T2, human IL-6; assay: SPR

B1: F027201061 (bispecific antibody)
chain: EVQLVESGGGVVQPGGSLRLSCTASGFTFSTADMGWFRQAPGKGREFVARISGIDGTTYYDEPVKGRFTISRDNSKNTVYLQMNSLRPEDTALYYCRSPRYADQWSAYDYWGQGTLVKVSSGGGGSGGGSEVQLVESGGGVVQPGGSLRLSCAASGFTLAYYAIGWFRQAPGKEREGVSCISGSVGTTYYADSVKGRFTISRDNAKNTVYLQMNSLRPEDTALYYCVRSSWFDCGVQGRDLGNEYDYRGQGTLVTVSSGGGGSGGGSEVQLVESGGGVVQPGGSLRLSCAASGFTFRSFGMSWVRQAPGKGPEWVSSISGSGSDTLYADSVKGRFTISRDNSKNTLYLQMNSLRPEDTALYYCTIGGSLSRSSQGTLVTVSSGGGGSGGGSEVQLVESGGGVVQPGGSLRLSCAASGFSLDYYGVGWFRQAPGKEREGVSCISSSEGDTYYADSVKGRFTISRDNAKNTVYLQMNSLRPEDTALYYCATDLSDYGVCSRWPSPYDYWGQGTLVKVSS
Ratio IC50 cyno IL-6/hIL-6 [1]: 0.7 ratio
IC50 hIL-6 TF1 proliferation assay [2]: 147 pM
Ratio IC50 cyno TNFα/hTNFα [3]: 2.5 ratio
IC50 hTNF-α Nfkb assay [4]: 71.2 pM
cyno IL-6 TF1 proliferation assay (IC50, pM) [5]: 101 pM
Ratio IC50 reference anti-IL-6 mAb1/Nb [6]: 2.7 ratio
hIL-6 TF1 proliferation assay (IC50, pM) [6]: 147 pM
cyno TNF-α NFkb assay (IC50, pM) [7]: 176 pM
Ratio IC50 reference anti-TNF-α mAb/Nb [8]: 0.91 ratio
hTNF-α Nfkb assay (IC50, pM) [8]: 71 pM

B2: F027200927 (bispecific antibody)
chain: DVQLVESGGGVVQPGGSLRLSCTASGFTFSTADMGWFRQAPGKGREFVARISGIDGTTYYDEPVKGRFTISRDNSKNTVYLQMNSLRPEDTALYYCRSPRYADQWSAYDYWGQGTLVTVSSGGGGSGGGSEVQLVESGGGVVQPGGSLRLSCAASGRTFSSYVMGWFRQAPGKEREFVSTINWAGSRGYYADSVKGRFTISRDNAKNTVYLQMNSLRPEDTALYYCAASAGGFLVPRVGQGYDYWGQGTLVTVSSGGGGSGGGSEVQLVESGGGVVQPGGSLRLSCAASGFTFRSFGMSWVRQAPGKGPEWVSSISGSGSDTLYADSVKGRFTISRDNSKNTLYLQMNSLRPEDTALYYCTIGGSLSRSSQGTLVTVSSGGGGSGGGSEVQLVESGGGVVQPGGSLRLSCAASGFSLDYYGVGWFRQAPGKEREGVSCISSSEGDTYYADSVKGRFTISRDNAKNTVYLQMNSLRPEDTALYYCATDLSDYGVCSRWPSPYDYWGQGTLVKVSSA
Ratio IC50 cyno IL-6/hIL-6 [1]: 1 ratio
IC50 hIL-6 TF1 proliferation assay [2]: 71.2 pM
Ratio IC50 cyno TNFα/hTNFα [3]: 4.3 ratio
IC50 hTNF-α Nfkb assay [4]: 59.3 pM
cyno IL-6 TF1 proliferation assay (IC50, pM) [5]: 72 pM
Ratio IC50 reference anti-IL-6 mAb1/Nb [6]: 1.8 ratio
hIL-6 TF1 proliferation assay (IC50, pM) [6]: 71 pM
cyno TNF-α NFkb assay (IC50, pM) [7]: 254 pM
Ratio IC50 reference anti-TNF-α mAb/Nb [8]: 4.2 ratio
hTNF-α Nfkb assay (IC50, pM) [8]: 59 pM

B3: F027201040 (VHH)
VHH: EVQLVESGGGVVQPGGSLRLSCAASGFTLAYYAIGWFRQAPGKEREGVSCISGSVGTTYYADSVKGRFTISRDNAKNTVYLQMNSLRPEDTALYYCVRSSWFDCGVQGRDLGNEYDYRGQGTLVTVSS
notes: also called IL6006B12 (L11V, S52aG, S60A, K83R, V89L)
koff [9]: 5.9e-05 s⁻¹
